The numbers were not newly measured in US20170022546, which cites them from elsewhere.

The target of this data set is T1, KZF (Kaiso zinc finger domain, three C2H2 fingers) (UniProt Q86T24).
T1 sequence: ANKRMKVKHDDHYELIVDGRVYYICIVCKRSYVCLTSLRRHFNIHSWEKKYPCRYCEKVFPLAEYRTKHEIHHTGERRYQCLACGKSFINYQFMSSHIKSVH
The note with it: 5mC; CITED ref 45; 1:1 complex.

“consecutive methylated CpG target (literature)”: the dissociation constant Kd is 0.21 nM.
